# Measured values as given in patent publication US20240425828.
# Columns and labels:
# [1] = target: Prototype foamy virus integrase (PFV IN) wild type, tetrameric intasome (Prototype foamy virus) (UniProt P14350); conditions: smTIRF lifetime at physiological buffer; searches 1.6 kb; integration rare
# [2] = target: Prototype foamy virus integrase (PFV IN) wild type, tetrameric intasome (Prototype foamy virus) (UniProt P14350); conditions: smTIRF FRET, stalling at gap; 110 mM NaCl, 2 mM MgSO4, 24 C
Substance,binding [1] [s],binding (% of search events with integration) [2]
23 kb naked linear DNA,2.1,–
60 bp target DNA with 1 or 2 base gap,–,20
